{
  "source": "patent KR20230078152A",
  "about": "(dated 2023)",
  "target": "human PSMA (prostate-specific membrane antigen) expressed on LNCaP cells (human, UniProt Q04609 1-750)",
  "sequence (Q04609 whole entry)": "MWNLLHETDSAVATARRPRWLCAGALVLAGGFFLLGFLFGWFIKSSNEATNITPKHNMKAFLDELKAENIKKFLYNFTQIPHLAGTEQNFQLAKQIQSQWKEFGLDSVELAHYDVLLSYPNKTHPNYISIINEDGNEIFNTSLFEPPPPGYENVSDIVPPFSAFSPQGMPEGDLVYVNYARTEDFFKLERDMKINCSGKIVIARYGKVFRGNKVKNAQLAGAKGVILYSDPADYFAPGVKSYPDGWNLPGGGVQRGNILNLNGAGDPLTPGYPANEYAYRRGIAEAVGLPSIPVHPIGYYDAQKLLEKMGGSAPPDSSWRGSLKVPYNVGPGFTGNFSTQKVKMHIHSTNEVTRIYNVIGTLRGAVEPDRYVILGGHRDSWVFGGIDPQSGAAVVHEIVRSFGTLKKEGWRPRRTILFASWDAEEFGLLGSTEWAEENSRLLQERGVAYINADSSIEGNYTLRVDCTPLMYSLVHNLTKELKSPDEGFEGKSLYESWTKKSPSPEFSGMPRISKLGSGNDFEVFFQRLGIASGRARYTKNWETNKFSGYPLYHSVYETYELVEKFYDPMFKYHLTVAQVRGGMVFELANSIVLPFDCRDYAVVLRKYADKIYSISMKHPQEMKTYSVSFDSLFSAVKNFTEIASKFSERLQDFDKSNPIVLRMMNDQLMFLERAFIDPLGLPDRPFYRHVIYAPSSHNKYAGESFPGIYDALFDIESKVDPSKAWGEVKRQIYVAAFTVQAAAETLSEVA",
  "assay": "cell-based or functional assay",
  "data": [
    {"binder": "PSMA 타겟 항체-약물 접합체 (PSMA target antibody-MMAE conjugate) (other, DAR 8.36, MMAE conjugated through a VC-PAB linker (antibody MMAE Conjugation Kit), DAR 8.36; sites not stated) VH: EVQLQQSGPELVKPGASVKISCKASGYAFSSSWMNWVKQRPGQGLEWIGRIYPADGDTNYNGKFKGKATLTADKSSSTAYMQLSSLTSVDSAVYFCARCGWDGGVYYAMDYWGQGTSVTVSS VL: DIVMTQSPASLAVSLGQRATISCRASKSVTTSGYSYMHWYQQKPGQPPKLLIYLASNLESGVPARFSGSGSGTDFTLNIHPVEEEDAATYYCQHSRELPRTFGGGTKLEIK", "values": [
      {"measurement": "cytotoxicity on LNCaP cells (Cell counting kit-8, 72 h), IC50", "value": 500, "unit": "pM"}
    ]}
  ]
}
